Experiment: soluble on expression in E. coli; label from the status in PepcDB or PDB records

| Sequence | soluble on expression in E. coli |
| --- | --- |
| SLAHIVTLNTPYREDWLTQLADVVTDPDELLRLLNIDADEKLLAGRSAKKLFALRVPRSFIDRMEKGNPDDPLLRQVLTSQDEFVVASGFSTDPLEEQHSVVPGLLHKYHNRALLLVKGGCAVNCRYCFRRHFPYAENQGNKRNWQTALEYVAAHPELDEMIFSGGDPLMAKEHELDWLLTQLEAIPHIKRLRIHSRLPIVIPARITEALVERFARSTLQILLVNHINHANEVDETFRQAMAKLRRVGVTLLNQSVLLRGVNDNAQTLANLSNALFDAGVMPYYLHVLDKVQGAAHFMVSDDEARQIMRELLTLVSGYLVPKLAREIGGEPSKTPLDLQLRQQ | not soluble |
| MEKIAVVGAGITGLFTAYYLSASGFDVEVFDKGDIASGTSGKFHGMLHSGARYAVTDKVSASECISENNTISSFARWFINDTGGYFVSSNREESDYGDTLTKACNDAGIPNYDIDVDEFKKIEPNVKNVDRVIHVPDKVIRAYEFSAAVAAEAFMNGTKFRLYSPVASVSEKGGKYVLGIERNGSLHYEHFDLIVNATGPFSGEFLKLAGYGGSPVMPSAGIMVVFSKPIVRSIINRMREPSDADIMVPYDGLSILGTSAVIVDDPENFSIDSEDVEAMIEDMSSLIPLIRNVNYSRTYYSVRPLLEDEGDDARKASRSFRIIKNGEGVFTVVGGKFTTGRLIGEHVAKEISKETGATIRIENPDLNSTYERFIEKYGRDDKYIAKAMSRIGTIDEENAMRSVAYAISTIIEGSLEHHHHHH | not soluble |
| MGSDKIHHHHHHMWTQQMIHTKRGTFELFTKGNGEPLCITHHYSQFNETGDYFADVFTSTHRVLLINLRDAGNSAKANSEKELSMIETIHDLEAIREALQLPTWHFAGHSTGGMLGLLYAITYPKSLQSLVLVGAAASNYTETPFCIYHPEHPQFHYMQHLIENLKSPHLTNEERKELSTERTKLSLHKPENYNSYFCKPIQKTMSASRMNAFSHEYPAFNLREHLPSMKTKTLIICGRYDVQCPIQYSIEMHEGIRNSIFVTFEESNHYPFLEEAAQFTSTIRTFYKLLH | not soluble |
| EPPDGKAISDGFNLLQELSAVNRENQLTPLGRQLARLPVDPRMGRMLLEAAKQGSLQEVLIVASAMSVQDVRERPPERQQAADQAHAQWKDAD | not soluble |
| MSEHLTLPTNKPQVTHFSSGPCAKHPGWSVSNLENACLGRSHRSEDGKAKLSEVIERSKQILGLPADYRLGIVPASDTGAVEMALWSLLGQRPLDILAWESFGQEWVKDVVDELKLPDVRLLKAPYGGLPNLDEVDFSHDVVFLWNGTTSGVRVPNGDWIKDDRQGLTICDATSAVFAMDIPWEKIDVLTYSWQKVLGGEAQHGVIVLSPRAVERLQTYEPAWPIPKIFRLSQKGKLIEGIFKGDTINTPSMLCVEDALDALIWAESVGGLPGLISRSEANLAAIAQWVKQSNWADFLAEKPETRSCTSICLKIVDAAFASLSAEDQGKFAKKLAKLLEKQQVAYDIAPYRAAPPGLRIWGGATVETADIEALLPWLDWAYANVKAEFVPVA | soluble |
| MIILDNSIQTKKRTDSLSKLITVNTLGPEGTSSEYAAKHFISNFTLLQGLNSKLSLHDTFESCIERTLQSPLEYTIVPHAYDGIKHFYMRPDLQLLQIFRCDTPMYGLAVRPDFEFRDDMLDTSVIVSHPSPINLIKYFTRKDVRFKLVNSTSQAARKVKEGLYDIALTNELARQKYGLTFVKTFKSIPMSWSLFGKGDVDDENLEHHHHHH | not soluble |
| MGHHHHHHSHMAHYLFNPFYLRLDCDLSKAYIHRIFASFYMEKEADAHTNEKRSKPMTQQYIVEPKKGLGLKLKKGQILKVVDVEGQQVADFVAYHAKDSYEHLDQGATIDAIHSIHVKVSDHLYSNPVLSRWLPLIEDTGPASMICCWPACRPDIEQALIWEAKRMSFRIRAMTICAVRLSSLAYRSPTCITHLRYCMDTVLDEEGNLSVETPLSDAGDYVRLRAEMDLIVAFSSCPRCNRDIQWRQCDIHTG | not soluble |
| GMHSAALLQKVDELPRLPKAIAELLDVVNNEDSTVKAVSEKLSHDPVLSARVLRLANSARFGCSREVGTIDDAVVRLGMQTLRTLVIASAVVGAVPKVEGFDLADFWGNTFEVAIICQELAKRLGTLPEEAFTCGILHSIGELLIVNGDPAVAATISAAVADGADRNLMEKELLGYDNAEIGALLAQSWKFTPHLVKGIQFQNHPKSAEPYSKLAGMLAMAKQIAADWDKIPDDERTSWLAQINILAGIKVDLGGLAEKLAKMHGQGMEMGKQLA | soluble |
| MTTSPDPYAALPKLPSFSLTSTSITDGQPLATPQVSGIMGAGGADASPQLRWSGFPSETRSFAVTVYDPDAPTLSGFWHWAVANLPANVTELPEGVGDGRELPGGALTLVNDAGMRRYVGAAPPPGHGVHRYYVAVHAVKVEKLDLPEDASPAYLGFNLFQHAIARAVIFGTYEQR | soluble |

— the DeepSol protein solubility set
